From patent US20120237496

What was measured:
[1] = target: T1, Peptide-3
T1 chain: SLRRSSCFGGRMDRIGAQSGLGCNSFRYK

[2] = target: T2, Peptide-6a
T2 chain: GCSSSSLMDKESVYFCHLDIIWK

[3] = target: Peptide-4
[4] = target: Peptide-7
[5] = target: T3, Peptide-8 (not fully specified)
T3 chain: CQLYENKPRRPYILK

[6] = target: Peptide-2
[7] = target: T4, Peptide-6b
T4 chain: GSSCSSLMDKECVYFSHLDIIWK

[8] = target: T5, Peptide-13 (not fully specified)
T5 chain: CRPPGFSPFRK

[9] = target: T6, Peptide-5 (not fully specified)
T6 chain: CDRVYIHPFHLK

[10] = target: Peptide-1

B1: C14 (protein)
chain: YPYDVPDYAYPYDVPDYAYPYDVPDYAGSYDDGICKSSDCIKSAARLIQNMDATTEPCTDFFKYACGGWLKRNVIPETSSRYGNFDILRDELEVVLKDVLQEPKTEDIVAVQKAKALYRSCINESAIDSRGGEPLLKLLPDIYGWPVATENWEQKYGASWTAEKAIAQLNSKYGKKVLINLFVGTDDKNSVNHVIHIDQPRLGLPSGDYYECTGIYKEACTAYVDLMISVARLIRQEERLPIDENQLALEMNKVMELEKEIANATAKPEDRNDPMLLYNKMTLAQIQNNFSLEINGKPFSWLNFTNEIMSTVNISITNEEDVVVYAPEYLTKLKPILTKYSARDLQNLMSWRFIMDLVSSLSRTYKESRNAFRKALYVTTSETATWRRCANYVNGNMMNAVGRLYVEAAFAGESKHVVEDLIAQIREVFIQTLDDLTWMDAETKKRAEEKALAIKERIGYPDDIVSNDNKLNNEYLELNYKEDEYFENIIQNLKFSQSKQLKKLREKVDKDEWISGAAVVNAFYSSGRNQIVFPAGILQPPFFSAQQSNSLNYGGIGMVIGHEITHGFMDNGRNFNKDDDLVDWWTQQSASNFKEQSQCMVYQYGNFSWDLAGGQHLNGINTLGENIADNGGLGQAYRAYQNYIKKNGEEKLLPGLDLNHKQLFFLNFAQVWCGTYRPEYAVNSIKTDVHSPKNFRIIGTLQNSAEFSEAFHCRKNSYMNPEKKCRVW
- kapp ratio vs G399V/G714K (B1) [1]: 0.24 fold
- kapp ratio vs G399V/G714K (B1) [2]: 0.3 fold
- kapp ratio vs G399V/G714K (B1) [3]: 0.72 fold
- kapp ratio vs G399V/G714K (B1) [4]: 0.59 fold
- kapp ratio vs G399V/G714K (B1) [5]: 0.43 fold
- kapp ratio vs G399V/G714K (B1) [6]: 2.01 fold
- kapp ratio vs G399V/G714K (B1) [7]: 0.24 fold
- kapp ratio vs G399V/G714K (B1) [8]: 0.71 fold
- kapp ratio vs G399V/G714K (B1) [9]: 0.2 fold
- kapp ratio vs G399V/G714K (B1) [10]: 1.98 fold

B2: C15 (protein)
chain: YPYDVPDYAYPYDVPDYAYPYDVPDYAGSYDDGICKSSDCIKSAARLIQNMDATTEPCTDFFKYACGGWLKRNVIPETSSRYGNFDILRDELEVVLKDVLQEPKTEDIVAVQKAKALYRSCINESAIDSRGGEPLLKLLPDIYGWPVATENWEQKYGASWTAEKAIAQLNSKYGKKVLINLFVGTDDKNSVNHVIHIDQPRLGLPSGDYYECTGIYKEACTAYVDFMISVARLIRQEERLPIDENQLALEMNKVMELEKEIANATAKPEDRNDPMLLYNKMTLAQIQNNFSLEINGKPFSWLNFTNEIMSTVNISITNEEDVVVYAPEYLTKLKPILTKYSARDLQNLMSWRFIMDLVSSLSRTYKESRNAFRKALYVTTSETATWRRCANYVNGNMMNAVGRLYVEAAFAGESKHVVEDLIAQIREVFIQTLDDLTWMDAETKKRAEEKALAIKERIGYPDDIVSNDNKLNNEYLELNYKEDEYFENIIQNLKFSQSKQLKKLREKVDKDEWISGAAVVNAFYSSGRNQIVFPAGILQPPFFSAQQSNSLNYGGIGMVIGHEITHGFMDNVRNFNKDDDLVDWWTQQSASNFKEQSQCMVYQYGNFSWDLAGGQHLNGINTLGENIADNGGLGQAYRAYQNYIKKNGEEKLLPGLDLNHKQLFFLNFAQVWCGTYRPEYAVNSIKTDVHSPKNFRIIGTLQNSAEFSEAFHCRKNSYMNPEKKCRVW
- kapp ratio vs G399V/G714K (B1) [1]: 0.24 fold
- kapp ratio vs G399V/G714K (B1) [2]: 0.46 fold
- kapp ratio vs G399V/G714K (B1) [3]: 0.7 fold
- kapp ratio vs G399V/G714K (B1) [4]: 0.75 fold
- kapp ratio vs G399V/G714K (B1) [5]: 0.52 fold
- kapp ratio vs G399V/G714K (B1) [6]: 2.72 fold
- kapp ratio vs G399V/G714K (B1) [7]: 0.24 fold
- kapp ratio vs G399V/G714K (B1) [8]: 0.44 fold
- kapp ratio vs G399V/G714K (B1) [9]: 0.25 fold
- kapp ratio vs G399V/G714K (B1) [10]: 2.52 fold

B3: C16 (protein)
chain: YPYDVPDYAYPYDVPDYAYPYDVPDYAGSYDDGICKSSDCIKSAARLIQNMDATTEPCTDFFKYACGGWLKRNVIPETSSRYGNFDILRDELEVVLKDVLQEPKTEDIVAVQKAKALYRSCINESAIDSRGGEPLLKLLPDIYGWPVATENWEQKYGASWTAEKAIAQLNSKYGKKVLINLFVGTDDKNSVNHVIHIDQPRLGLPSGDYYECTGIYKEACTAYVDFMISVARLIRQEERLPIDENQLALEMNKVMELEKEIANATAKPEDRNDPMLLYNKMTLAQIQNNFSLEINGKPFSWLNFTNEIMSTVNISITNEEDVVVYAPEYLTKLKPILTKYSARDLQNLMSWRFIMDLVSSLSRTYKESRNAFRKALYVTTSETATWRRCANYVNGNMMNAVGRLYVEAAFAGESKHVVEDLIAQIREVFIQTLDDLTWMDAETKKRAEEKALAIKERIGYPDDIVSNDNKLNNEYLELNYKEDEYFENIIQNLKFSQSKQLKKLREKVDKDEWISGAAVVNAFYSSGRNQIVFPAGILQPPFFSAQQSNSLNYGGIGMVIGHEITHGFMDNVRNPNKDWDLVDWWTQQSASNFKEQSQCMVYQYGNFSWDLAGGQHLNGINTLGENIADNGGLGQAYRAYQNYIKKNGEEKLLPGLDLNHKQLFFLNFAQVWCGTYRPEYAVNSIKTDVHSPKNFRIIGTLQNSAEFSEAFHCRKNSYMNPEKKCRVW
- kapp ratio vs G399V/G714K (B1) [1]: 0.24 fold
- kapp ratio vs G399V/G714K (B1) [2]: 0.35 fold
- kapp ratio vs G399V/G714K (B1) [3]: 0.7 fold
- kapp ratio vs G399V/G714K (B1) [4]: 0.7 fold
- kapp ratio vs G399V/G714K (B1) [5]: 0.4 fold
- kapp ratio vs G399V/G714K (B1) [6]: 2.19 fold
- kapp ratio vs G399V/G714K (B1) [7]: 0.23 fold
- kapp ratio vs G399V/G714K (B1) [8]: 0.44 fold
- kapp ratio vs G399V/G714K (B1) [9]: 0.21 fold
- kapp ratio vs G399V/G714K (B1) [10]: 2.24 fold

B4: C17 (protein)
chain: YPYDVPDYAYPYDVPDYAYPYDVPDYAGSYDDGICKSSDCIKSAARLIQNMDATTEPCTDFFKYACGGWLKRNVIPETSSRYGNFDILRDELEVVLKDVLQEPKTEDIVAVQKAKALYRSCINESAIDSRGGEPLLKLLPDIYGWPVATENWEQKYGASWTAEKAIAQLNSKYGKKVLINLFVGTDDKNSVNHVIHIDQPRLGLPSGDYYECTGIYKEACTAYVDFMISVARLIRQEERLPIDENQLALEMNKVMELEKEIANATAKPEDRNDPMLLYNKMTLAQIQNNFSLEINGKPFSWLNFTNEIMSTVNISITNEEDVVVYAPEYLTKLKPILTKYSARDLQNLMSWRFIMDLVSSLSRTYKESRNAFRKALYVTTSETATWRRCANYVNGNMMNAVGRLYVEAAFAGESKHVVEDLIAQIREVFIQTLDDLTWMDAETKKRAEEKALAIKERIGYPDDIVSNDNKLNNEYLELNYKEDEYFENIIQNLKFSQSKQLKKLREKVDKDEWISGAAVVNAFYSSGRNQIVFPAGILQPPFFSAQQSNSLNYGGIGMVIGHEITHGFMDNVRNPNKDGDLVDWWTQQSASNFKEQSQCMVYQYGNFSWDLAGGQHLNGINTLGENIADNGGLGQAYRAYQNYIKKNGEEKLLPGLDLNHKQLFFLNFAQVWCGTYRPEYAVNSIKTDVHSPKNFRIIGTLQNSAEFSEAFHCRKNSYMNPEKKCRVW
- kapp ratio vs G399V/G714K (B1) [1]: 0.24 fold
- kapp ratio vs G399V/G714K (B1) [2]: 0.47 fold
- kapp ratio vs G399V/G714K (B1) [3]: 0.7 fold
- kapp ratio vs G399V/G714K (B1) [4]: 0.57 fold
- kapp ratio vs G399V/G714K (B1) [5]: 0.33 fold
- kapp ratio vs G399V/G714K (B1) [6]: 3.13 fold
- kapp ratio vs G399V/G714K (B1) [7]: 0.33 fold
- kapp ratio vs G399V/G714K (B1) [8]: 0.49 fold
- kapp ratio vs G399V/G714K (B1) [9]: 0.27 fold
- kapp ratio vs G399V/G714K (B1) [10]: 3.28 fold

B5: C18 (protein)
chain: YPYDVPDYAYPYDVPDYAYPYDVPDYAGSYDDGICKSSDCIKSAARLIQNMDATTEPCTDFFKYACGGWLKRNVIPETSSRYGNFDILRDELEVVLKDVLQEPKTEDIVAVQKAKALYRSCINESAIDSRGGEPLLKLLPDIYGWPVATENWEQKYGASWTAEKAIAQLNSKYGKKVLINLFVGTDDKNSVNHVIHIDQPRLGLPSGDYYECTGIYKEACTAYVDFMISVARLIRQEERLPIDENQLALEMNKVMELEKEIANATAKPEDRNDPMLLYNKMTLAQIQNNFSLEINGKPFSWLNFTNEIMSTVNISITNEEDVVVYAPEYLTKLKPILTKYSARDLQNLMSWRFIMDLVSSLSRTYKESRNAFRKALYVTTSETATWRRCANYVNGNMMNAVGRLYVEAAFAGESKHVVEDLIAQIREVFIQTLDDLTWMDAETKKRAEEKALAIKERIGYPDDIVSNDNKLNNEYLELNYKEDEYFENIIQNLKFSQSKQLKKLREKVDKDEWISGAAVVNAFYSSGRNQIVFPAGILQPPFFSAQQSNSLNYGGIGMVIGHEITHGFMDNVRNFNKDWDLVDWWTQQSASNFKEQSQCMVYQYGNFSWDLAGGQHLNGINTLGENIADNGGLGQAYRAYQNYIKKNGEEKLLPGLDLNHKQLFFLNFAQVWCGTYRPEYAVNSIKTDVHSPKNFRIIGTLQNSAEFSEAFHCRKNSYMNPEKKCRVW
- kapp ratio vs G399V/G714K (B1) [1]: 0.24 fold
- kapp ratio vs G399V/G714K (B1) [2]: 0.36 fold
- kapp ratio vs G399V/G714K (B1) [3]: 0.59 fold
- kapp ratio vs G399V/G714K (B1) [4]: 0.67 fold
- kapp ratio vs G399V/G714K (B1) [5]: 0.73 fold
- kapp ratio vs G399V/G714K (B1) [6]: 2.29 fold
- kapp ratio vs G399V/G714K (B1) [7]: 0.26 fold
- kapp ratio vs G399V/G714K (B1) [8]: 0.5 fold
- kapp ratio vs G399V/G714K (B1) [9]: 0.16 fold
- kapp ratio vs G399V/G714K (B1) [10]: 2.56 fold

B6: C19 (protein)
chain: YPYDVPDYAYPYDVPDYAYPYDVPDYAGSYDDGICKSSDCIKSAARLIQNMDATTEPCTDFFKYACGGWLKRNVIPETSSRYGNFDILRDELEVVLKDVLQEPKTEDIVAVQKAKALYRSCINESAIDSRGGEPLLKLLPDIYGWPVATENWEQKYGASWTAEKAIAQLNSKYGKKVLINLFVGTDDKNSVNHVIHIDQPRLGLPSGDYYECTGIYKEACTAYVDFMISVARLIRQEERLPIDENQLALEMNKVMELEKEIANATAKPEDRNDPMLLYNKMTLAQIQNNFSLEINGKPFSWLNFTNEIMSTVNISITNEEDVVVYAPEYLTKLKPILTKYSARDLQNLMSWRFIMDLVSSLSRTYKESRNAFRKALYVTTSETATWRRCANYVNGNMMNAVGRLYVEAAFAGESKHVVEDLIAQIREVFIQTLDDLTWMDAETKKRAEEKALAIKERIGYPDDIVSNDNKLNNEYLELNYKEDEYFENIIQNLKFSQSKQLKKLREKVDKDEWISGAAVVNAFYSSGRNQIVFPAGILQPPFFSAQQSNSLNYGGIGMVIGHEITHGFMDNGRNPNKDLDLVDWWTQQSASNFKEQSQCMVYQYGNFSWDLAGGQHLNGINTLGENIADNGGLGQAYRAYQNYIKKNGEEKLLPGLDLNHKQLFFLNFAQVWCGTYRPEYAVNSIKTDVHSPKNFRIIGTLQNSAEFSEAFHCRKNSYMNPEKKCRVW
- kapp ratio vs G399V/G714K (B1) [1]: 0.24 fold
- kapp ratio vs G399V/G714K (B1) [2]: 0.29 fold
- kapp ratio vs G399V/G714K (B1) [3]: 0.67 fold
- kapp ratio vs G399V/G714K (B1) [4]: 0.34 fold
- kapp ratio vs G399V/G714K (B1) [5]: 0.29 fold
- kapp ratio vs G399V/G714K (B1) [6]: 2.34 fold
- kapp ratio vs G399V/G714K (B1) [7]: 0.19 fold
- kapp ratio vs G399V/G714K (B1) [8]: 0.33 fold
- kapp ratio vs G399V/G714K (B1) [9]: 0.15 fold
- kapp ratio vs G399V/G714K (B1) [10]: 2.33 fold
